{"source": "patent US10765761B2", "about": "“Nucleic acid condensing peptide, nucleic acid condensing peptide set, nucleic acid delivery carrier, nucleic acid delivery method, cell production method, cell detection method and kit” (KABUSHIKI KAISHA TOSHIBA, priority 2016, dated 2020)", "key": {"[1]": {"system": "human normal mammary gland epithelial cells (HMEC)", "experiment": "Transfection of nucleic acid (pAmp-CMV-nLuc) into cells by liposome, luminescence imaging, Example 5", "type": "cell-based", "settings": "48 hours after addition of the liposome, NanoLuc (FIG. 10)", "source_text": "As nucleic acid to be encapsulated in the liposome, pAmp-CMV-nLuc was used. The pAmp-CMV-nLuc is a reporter vector which contains a NanoLuc gene as the reporter gene. The pAmp-CMV-nLuc includes a CMV promoter as a gene expression promoter, and in its lower stream, a NanoLuc gene, IRES sequence and a replication initiation protein (LT, large T antigen) gene of simian virus 40 (SV40) which are liked in this order, and further, in a lower stream, a replication initiation sequence (SV40 ori) of SV40. Using this nucleic acid, the protamine of Example 3 and the peptides of the mHP-1 and mHP-3, a liposome solution was produced by a method similar to that of Example 3.\nThe liposome solution prepared as above was added to human normal mammary gland epithelial cells (HMEC) (Kurabo Industries). The HMEC used here was prepared by reviving from an HMEC freeze stock and thereafter culturing in an incubator of a 5%-CO2 atmosphere at 37 degrees Celsius for six to seven days. […]\n48 hours after the addition of the liposome, a luminescence substrate (Nano-Glo Luciferase Assay Substrate and Promega) was added to the culture medium to dilute to 1/2000. This culture dish was set to LV200 (a luminescence imaging system of Olympus) and photographed. […]"}, "nucleic acid": {"system": "nucleic acid", "experiment": "Gel retardation assay: encapsulation of nucleic acid to liposome, Example 4", "settings": "Complex with SDS 1% (liposome cleaved), 0.8% agarose gel (FIG. 9)", "procedure": "The encapsulation of nucleic acid to liposome by the peptide of the embodiment was evaluated with a gel retardation assay.\nAs samples for the encapsulation evaluation, two sets of 8.0 μL of 10 mM-HEPES (pH: 7.0) were prepared and 1.0 μL of solutions of Complex respectively containing the mHP-1 or mHP-3 of Example 3 and sodium dodecyl sulfate (SDS, the final concentration: 1%) which cleavages liposome were added thereto, to prepare mixtures. In addition, as controls, a mixture to which 1.0 μL of a poly-glutamic-acid (PGA) solution was added in place of SDS, and a sample which contains neither SDS nor PGA were prepared. After the solutions were let stand still for 15 minutes at room temperature, 1.0 μL of an electrophoretic buffer (50%-sucrose solution) was added to each mixture, and they were mixed well, to carry out electrophoresis with a 0.8%-agarose gel. After the electrophoresis, the gel was immersed in an ethidium bromide solution to dye the nucleic acid and the gel was photographed while irradiating it with UV, thus detecting the nucleic acid.\nFIG. 9 is a photograph taken by irradiating the agarose gel with UV."}, "plasmid vector (pDNA)": {"system": "plasmid vector (pDNA)", "experiment": "Average particle diameter, polydispersity index and Zeta potential of peptide-nucleic-acid complexes, Example 6", "type": "physicochemical", "settings": "peptide-nucleic-acid complex, total peptide 0.24 mg/ml, pDNA 0.15 mg/ml", "procedure": "Each of the peptides was dissolved into 10 mM-HEPES (pH: 5.4) to prepare several peptide solutions having different peptide concentrations.\nFor the mHP-1, one peptide solution was prepared to have a peptide concentration of (1) 0.24 mg/ml. For the mHP-2, one peptide solution was prepared to have a peptide concentration of (2) 0.24 mg/ml. For the mHP-1 and mHP-2, five peptide solutions were prepared to have a total peptide concentration of 0.24 mg/ml and mixture ratios between mHP-1 and mHP-2 of: (3) 1:1, (4) 1:3, (5) 1:5, (6) 1:7 and (7) 1:9. Meanwhile, plasmid vector (pDNA) was diluted with purified water to prepare a nucleic acid solution having a pDNA concentration of 0.15 mg/ml.\nThe peptide solutions (1) to (7) (100 μL) were prepared in tubes and the nucleic acid solution (200 μL) was dropped and mixed thereto while stirring each solution to condense the nucleic acids, and thus peptide-nucleic-acid complexes were obtained.\nThe peptide-nucleic-acid complexes were investigated in terms of average particle diameter, polydispersity index and Zeta potential using the respective peptide-nucleic-acid solutions. The average particle diameter, polydispersity index and Zeta potential were measured using a zetasizer."}, "[2]": {"experiment": "Average particle diameter, polydispersity index and Zeta potential of liposome (Complex), Example 8", "type": "physicochemical", "procedure": "COATSOME/SS-20 (Nippon Oil & Fats), DOPE, cholesterol and DMG-PEG were dissolved into ethanol at a molar ratio of 5:3:1:0.3, to obtain a lipid solution. Five sets of 50 μL of lipid solutions put into tubes were prepared, and 50 μL of peptide-nucleic-acid solutions (1) to (4) and (7) of Example 6 were dropped thereto while stirring each lipid solution, thereby forming liposomes. 400 μL of 10 mM-HEPES (pH: 5.4) was added to each of the liposome solutions to make a total amount of 500 μL (this liposome solution will be referred to as “Complex” hereinafter).\nThe average particle diameter, polydispersity index and Zeta potential of liposome were investigated using the Complex. The average particle diameter, polydispersity index and Zeta potential were measured using a zetasizer."}}}
{"sequence": "RQRQRGGRRRRRR (Nucleic acid condensing peptide) [mHP-3]", "values": [{"measurement": "luminescent cells (reporter gene expressed)", "setting": "[1]", "result": "luminescence was observed in more cells than those of the sample which used the protamine"}, {"measurement": "encapsulation of nucleic acid in liposome", "setting": "nucleic acid", "result": "encapsulated well"}]}
{"sequence": "RQRQRYYRQRQRGGRRRRRR (Nucleic acid condensing peptide) [mHP-1]", "values": [{"measurement": "luminescent cells (reporter gene expressed)", "setting": "[1]", "result": "luminescence was observed in most cells"}, {"measurement": "Average particle diameter (zAve)", "setting": "plasmid vector (pDNA)", "result": 156.6, "unit": "nm"}, {"measurement": "Polydispersity index (PDI)", "setting": "plasmid vector (pDNA)", "result": 0.190}, {"measurement": "Zeta potential", "setting": "plasmid vector (pDNA)", "result": "−31.1", "unit": "mV"}, {"measurement": "encapsulation of nucleic acid in liposome", "setting": "nucleic acid", "result": "encapsulated well"}, {"measurement": "Average particle diameter (zAve)", "setting": "[2]", "result": 244.7, "unit": "nm"}, {"measurement": "Polydispersity index (PDI)", "setting": "[2]", "result": 0.193}, {"measurement": "Zeta potential", "setting": "[2]", "result": 31.6, "unit": "mV"}]}
